How the values were obtained:
[1] = Visual assessment of adverse effect on injection site in pigs; format: in vivo; settings: extra dose of 150 μg of Compound A alone; 2 pigs
Method: A brief adverse effect visual assessment on injection site was performed on 2 random chosen pigs by testing an extra dose of 150 μg of Compound A alone.

[2] = Antigen fragment solubility/stability (Table 1); format: physicochemical
Source text: Antigen (abbreviated as “Ag” herein) fragments employed in the present invention typically have certain properties useful in conjugation. In one aspect, the antigen fragments are proteins that are stable in solution and not prone to any substantial aggregation. In another aspect the antigen fragment contains a minimum of three available amines at which conjugation can occur and have a size of less than 500 kD.
Such fragments are readily commercially available and/or can be readily made by those skilled in the ar.

Compound | visual adverse effect of the injected site [1] | Solubility [2] [mg/mL] | Stability [2]
CCCCOc1nc(N)c2[nH]c(=O)n(CC3CCNCC3)c2n1 [Compound A] | No visual adverse effect of the injected site was observed |  | 
Tetanus Toxoid |  | 30 | years

Reference: US11207404B2, “Compositions and uses” (priority 2015, dated 2021)
